The nature of this data set: yeast display, Sf9 membrane polyspecificity reagent, FACS + sequencing; frameworks hold sequencing errors. The essentials:
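Galactose-induced (36–48 hours) yeast carrying a synthetic nanobody display library were exposed to 10% biotinylated, detergent-solubilized Sf9 membrane reagent at 4 °C for 1 hour. FACS followed streptavidin microbead enrichment, using low and high (top ~1%) gates for expression (anti-HA) and reagent binding (streptavidin). Colony PCR, MiSeq 2 × 250 sequencing and CDR-length filtering followed. Labels for polyreactivity reflect the gate of origin.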
For “QVQLVESGGGLVQAGGSLRLSCAASGSTFPPYVMGWYRQAPGKERELVAAITWSSGSTYYADSVKGRFTISRDNAKNTVYLQMNSLKPEDTAVYYCAAKWLGYGFDYWGQGTQVTVSS”, the “polyreactivity (PSR sort gate)” value is reported as “low polyreactivity”.

Take “QVQLVESGGGLVQAGGSLRLSCAASGSTFPRNAMGWYRQAPGKERELVATITSSGGGTYYADSVKGRFTISRDNAKNTVYLQMNSLKPEDTAVYYCNVEVHPYYWVDNFHRFPVLHNYWGQGTQVTVSA”: the “polyreactivity (PSR sort gate)” value is “low polyreactivity”.

On to “QVQLVESGGGLVQAGGSLRLSCAASGSTFPRNDMGWYRQAPGKERELVAAISRGGSTNNADSVKGRFTISRDNAKNTVYLQMNSLKPEDTAVYYCAAQIFESAYGMDYWGQGTQVTVSS”, for which the “polyreactivity (PSR sort gate)” value is recorded as “low polyreactivity”.

On to “QVQLVESGGGLVQAGGSLRLSCAASGSTFPRYAMGWYRPAPGKERELVARISNSGASTYYADSVKGRFTISRDNAKNTVYLQMNSLKPEDTAVYYCNARRYSRPSGFKHYHYAESDYWGQGTQVTVSS”, for which the “polyreactivity (PSR sort gate)” value is “high polyreactivity”.

As for “QVQLVESGGGLVQAGGSLRLSCAASGSTFPSNAMGWYRQAPGKERELVAAISSGGRTYYADSVKGRFTISRDNAKNTVYLQMNSLKPEDTAVYYCAADTDRRSPFDYWGQGTQVTVSS”, the “polyreactivity (PSR sort gate)” value is “high polyreactivity”.

For the sequence “QVQLVESGGGLVQAGGSLRLSCAASGSTFPSNVMGWNRQAPVKERELVAAITWSGVRTYYADSVKGRFTISRDNAKNTVYLQMNSLKPEDTAVYYCAARSTYVRYDYWGQGTQVTVSS”, the “polyreactivity (PSR sort gate)” value was “high polyreactivity”.

In the case of “QVQLVESGGGLVQAGGSLRLSCAASGSTFPSYAMGWSRQAPGKERELVAAISRSGGSTYYADSVKGRFTISRDNAKNTVYLQMISLKPEDTAVYYCAARGHLRYESDYWGQGTQVTVSS”, the “polyreactivity (PSR sort gate)” value is “high polyreactivity”.

As to “QVQLVESGGGLVQAGGSLRLSCAASGSTFPSYAMGWYRQAPGKERELVAAINSGGGTNYADSVKGRFTISRDTAKNTVYLQMNSLKPEDTAVYYCAKARYDYTKPEGGYWGQGTHVTVSS”, the “polyreactivity (PSR sort gate)” value is listed as “low polyreactivity”.

Regarding “QVQLVESGGGLVQAGGSLRLSCAASGSTFPSYAMGWYRQAPGKERELVAAISGSGTSTYYADSVKGRFTISRDNAKNTVYLQMNSRKPEDTAVYYCRAVWLSTYLGWGRDYWGQGTQVTVSS”, the “polyreactivity (PSR sort gate)” value is reported as “high polyreactivity”.

Turning to “QVQLVESGGGLVQAGGSLRLSCAASGSTFPWNAMGWYRQAPGKERELVAAINYGNGSTYYADSVKGRFTISRDNAKNTVYLQMNSLKPVDTAVYYCNADFTGTRSDSVTPEYEYWGQGTQVTVSS”, the “polyreactivity (PSR sort gate)” value is recorded as “low polyreactivity”.

As to “QVQLVESGGGLVQAGGSLRLSCAASGSTFPWYVMGWYRQAPGKERELVAAISWSGGRTYYADSVKGRFTISRDNAKNTVYLQMNSLKPEDTAVYYCAADLSYWRGGHSRNYWGQGTQVTVSS”, the “polyreactivity (PSR sort gate)” value is recorded as “low polyreactivity”.

Regarding “QVQLVESGGGLVQAGGSLRLSCAASGSTFPYNAMGCDRQAAGKERELVAAISFSGGITTYADSVKGRFTISRDNAKNTVYLQMNSLKPEDTAVYYCNVAYTLHFGYWGQGTQVTVSS”, the “polyreactivity (PSR sort gate)” value is recorded as “low polyreactivity”.

Consider “QVQLVESGGGLVQAGGSLRLSCAASGSTFPYNAMGWYRQAPGKERELVAAITSSGRTNYADSVKGRFTITLDNAKNTVYLQMNSLKPEDTAVYYCAAGRWYAHRVDYWGQGSQVTVSS”, for which the “polyreactivity (PSR sort gate)” value is on record as “low polyreactivity”.

Regarding “QVQLVESGGGLVQAGGSLRLSCAASGSTFPYNAMGWYRQAPGKERELVAAITWRAGRTYYADSVKGRFTISRDNAKNTVYLQMNSLKPEDTAVYYCAKSYQRGVNHYEYWGQGTQVTVSS”, the “polyreactivity (PSR sort gate)” value is reported as “high polyreactivity”.

“QVQLVESGGGLVQAGGSLRLSCAASGSTFPYNAMGWYRQAPGKERELVAANTFSGGSTYYADSVKGRFTISRDNAKNTVYLQMNSLKPEDTAVYYCNARYPWWGQRYDYWGQGTQVTVSS”: the “polyreactivity (PSR sort gate)” value is reported as “low polyreactivity”.

“QVQLVESGGGLVQAGGSLRLSCAASGSTFPYNAMGWYSPAPGKERELVAAITSAGGTNYADSVKGRFTISRDNATNTVYLQMNSLKPEDTAVYYCAADGSGYYDWYYYWGQGTQVTVSS”: the “polyreactivity (PSR sort gate)” value is “low polyreactivity”.

Turning to “QVQLVESGGGLVQAGGSLRLSCAASGSTFPYYALGWSRQAPGKEREFVATISSSGGSTYYADSVKGRFTISRDNAKNTVYLQMNSLKPEDTAVYYCAARYQTSGFRYRYGYWGQGTQVTVSS”, the “polyreactivity (PSR sort gate)” value is “high polyreactivity”.

“QVQLVESGGGLVQAGGSLRLSCAASGSTFPYYAMGWYRQAPGKERELVAAISRGDSTNYADSVKGRFTISRDNAKNTVYLQMNSLKPEDTAVYYCAARLQYRRTSVKYYYWGQGTQVTVSS”: the “polyreactivity (PSR sort gate)” value is “high polyreactivity”.

Turning to “QVQLVESGGGLVQAGGSLRLSCAASGSTFPYYAMGWYRQAPGKERELVAAISRRGGSTYYADSVKGRFTISRDNAKNTVYLQMNSLKPEDTAVYYCAAGYYPSSSGDDYWGQGTQVTVSS”, the “polyreactivity (PSR sort gate)” value is given as “high polyreactivity”.

Consider “QVQLVESGGGLVQAGGSLRLSCAASGSTFPYYAMGWYRQAPGKERELVAAITSSASTYYADSVKGRFTISRDNAKNTVYLQMNSLKPEDTAVYYCAVRSPYRLSRWRVGYWGQGTQVTVSS”, for which the “polyreactivity (PSR sort gate)” value was “high polyreactivity”.

For “QVQLVESGGGLVQAGGSLRLSCAASGSTFPYYAMGWYRQAPGKERELVARISSGSSTNYADSVKGRFTISRDNAKNTVYLQMNSLKPEDTAVYYCAARYTARRQSYGYWGQGTQVTVSS”, the “polyreactivity (PSR sort gate)” value is “high polyreactivity”.

Turning to “QVQLVESGGGLVQAGGSLRLSCAASGSTFPYYGMGWYRQAPGKERDLVAVISRRGTGTYYADSVKGRFTISRDNAKNTVYLQMNSLKPEDTAVYYCNTDTHGPGPTFDHYDYWGQGTQVTVSS”, the “polyreactivity (PSR sort gate)” value is listed as “low polyreactivity”.

For the sequence “QVQLVESGGGLVQAGGSLRLSCAASGSTFPYYVMGWYRQAPGKERELVAAISKSGGSTYYADSVKGRFTISRDNEKNTVYLQMNSLKPEDTAVYYCAKSYRSSRRYNYWGQDTQVTVSS”, the “polyreactivity (PSR sort gate)” value is listed as “high polyreactivity”.

Take “QVQLVESGGGLVQAGGSLRLSCAASGSTFQANTMGWYRQAPGKERELVAAISIRGANTYYADSVKGRFTISRDNAKNTVYLQMNSLKPEDTAVYYCATRVRKYSLRLDYWGQGTQVTVSS”: the “polyreactivity (PSR sort gate)” value was “high polyreactivity”.

In the case of “QVQLVESGGGLVQAGGSLRLSCAASGSTFQFYAMGWSRQAPGKERELVATISSGDSTNYADSVKGRFTISRDNAKNTVYLQMNSLKPEDTAVYYCAADFWGQYQGLDGGDYWGQGTQVTVSS”, the “polyreactivity (PSR sort gate)” value is given as “low polyreactivity”.

Regarding “QVQLVESGGGLVQAGGSLRLSCAASGSTFQFYAMGWYRHAPGKERELVAAIDGSDGDTYYADSVKGRFTISRDNAKNTVYLQMNSLKPEDTAVYYCNADRDALVGYDYDYWGQGTQVTVSS”, the “polyreactivity (PSR sort gate)” value is reported as “low polyreactivity”.

As to “QVQLVESGGGLVQAGGSLRLSCAASGSTFQFYAMGWYRQAPGKEREFVAAITTRSGSTYYADSVKGRFTISRDNAKNTVYLQMNSLKPEDTAVYYCAAYIYGHSSDSVRYEYWGQGTQVTVSS”, the “polyreactivity (PSR sort gate)” value is listed as “low polyreactivity”.

“QVQLVESGGGLVQAGGSLRLSCAASGSTFQGYAMGWYRQAPGNERELVAAISRRGGSTYYADSVKGRFTISRDNAKNTVYFQKNSLKPEDTAVYYCNAVVRTIVLYYWGQGTQVTVSS”: the “polyreactivity (PSR sort gate)” value is “high polyreactivity”.

For “QVQLVESGGGLVQAGGSLRLSCAASGSTFQLYAMGWYRQAPGKERELVAAISGIGDSTYYADSVKGRFTISRDNAKNTVYLQMNSLKPEDTAVYYCAREFSDGLSGKFDYWGQGTQVTVSS”, the “polyreactivity (PSR sort gate)” value is “low polyreactivity”.

As to “QVQLVESGGGLVQAGGSLRLSCAASGSTFQPYAMGWYRQAPGKEREFVATISGSAGSTYYADSVKGRFKISRDNAKNTVYLLMNSLKPEDTAVYYCNADSGWFGYDYWGQGTQVTVSS”, the “polyreactivity (PSR sort gate)” value is reported as “low polyreactivity”.
